# ± gives the standard deviation of the averaged measurements.
# B1: library; a variant is named by its letters at N, in order (parent)
# chain: GCUGUCACCGAGAAACUGUGAAGUAUAUCUUAAACCUGGGCACUUAAAAGAUAUAUGGAGUUAGUAGUGCAACCUGCUCGGUCUGAUGAGUCCNNNNNNGGACGAAACAGC
# Assays:
# cyclic di-GMP [1] = variants of: B1; assay: FACS-Seq fitted mean relative fluorescence mCherry/BFP without ligand (log10 relative fluorescence); HEK293T; ligand: cyclic di-GMP (c-di-GMP-II aptamer); higher = higher reporter protein expression; conditions: ligand present: no
# Method: (§1)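 Hammerhead (sTRSV) ribozyme switch libraries with a ligand aptamer grafted on stem I and a randomized N4-6 loop II, cloned into the 3' UTR of mCherry and transiently transfected into HEK293T cells; RNA-Seq 72 h post transfection with ligand added 1 h before transfection; RNA read count / plasmid DNA read count normalized to the non-cleaving sTRSVctl (x100), log10; sequences with >100 DNA reads. FACS-Seq: lentiviral library sorted into 6 bins after 48 h ligand, log-normal fit mean of mCherry/BFP scaled to controls. Printed sequences are partial switch sequences.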
# cyclic di-GMP [2] = variants of: B1; assay: normalized RNA/DNA level without ligand (relative to sTRSVctl = 100) (log10 (% of sTRSVctl)); HEK293T; ligand: cyclic di-GMP (c-di-GMP-II aptamer); higher = less ribozyme self-cleavage, higher mRNA level; conditions: reporter: mCherry (pCS4076), ligand present: no
# Method: as §1
# cyclic di-GMP [3] = variants of: B1; assay: FACS-Seq fitted mean relative fluorescence mCherry/BFP with ligand (log10 relative fluorescence); HEK293T; ligand: cyclic di-GMP (c-di-GMP-II aptamer); ligand concentration (+) FACS-Seq: 1 mM; higher = higher reporter protein expression; conditions: ligand present: yes
# Method: as §1
# cyclic di-GMP [4] = variants of: B1; assay: normalized RNA/DNA level with ligand (relative to sTRSVctl = 100) (log10 (% of sTRSVctl)); HEK293T; ligand: cyclic di-GMP (c-di-GMP-II aptamer); ligand concentration (+) RNA-Seq: 1 mM; higher = less ribozyme self-cleavage, higher mRNA level; conditions: reporter: mCherry (pCS4076), ligand present: yes
# Method: as §1
Variant,FACS-Seq fitted mean (log10) (cyclic di-GMP [1]),normalized RNA/DNA level without ligand (log10) (cyclic di-GMP [2]),FACS-Seq fitted mean (log10) (cyclic di-GMP [3]),normalized RNA/DNA level with ligand (log10) (cyclic di-GMP [4])
CAAAUA,-0.296 ± 0.0065,1.28 ± 0.11,-0.211 ± 0.2,1.46 ± 0.14
GAACCC,0.196 ± 0.15,1.82 ± 0.026,0.39 ± 0.019,1.91 ± 0.12
GAAAGA,-0.392 ± 0.037,1.41 ± 0.11,-0.0161 ± 0.058,1.57 ± 0.11
GAAAGU,-0.387 ± 0.03,1.55 ± 0.044,-0.0693 ± 0.089,1.71 ± 0.095
CAAAGA,-0.231 ± 0.15,1.47 ± 0.074,0.00425 ± 0.022,1.68 ± 0.1
CAAAGU,0.000886 ± 0.21,1.7 ± 0.032,0.204 ± 0.087,1.79 ± 0.12
UAAAAG,-0.3384 ± 0.0033,1.685 ± 0.0079,-0.102 ± 0.2,1.84 ± 0.1
GAAGGA,-0.325 ± 0.067,1.44 ± 0.093,0.0781 ± 0.006,1.59 ± 0.067
CAACAA,-0.326 ± 0.062,1.37 ± 0.11,0.0147 ± 0.011,1.53 ± 0.1
CAACAU,-0.377 ± 0.0095,1.43 ± 0.089,-0.0626 ± 0.039,1.64 ± 0.13
AAACAU,-0.286 ± 0.077,1.6 ± 0.019,-0.0737 ± 0.18,1.77 ± 0.11
AAACAC,-0.457 ± 0.011,1.6 ± 0.035,-0.124 ± 0.07,1.75 ± 0.082
AAACAA,-0.921 ± 0.12,1.44 ± 0.051,-0.77 ± 0.014,1.62 ± 0.1
AAACAG,-0.103 ± 0.1,1.55 ± 0.053,0.169 ± 0.015,1.73 ± 0.095
CAAAAU,-0.237 ± 0.17,1.45 ± 0.11,0.0784 ± 0.017,1.65 ± 0.085
CAAAAC,-0.495 ± 0.03,1.58 ± 0.055,-0.278 ± 0.08,1.77 ± 0.14

# From the supplement of paper PMC6757056
